Source: patent US20220411506A1 (SUZHOU GALAXY BIOPHARMA, published 2022)

T1: hCTLA4-hFc (human, UniProt P16410 36-161)
T1 construct: also called hCTLA4-Fc protein; biotinylated hCTLA4-hFc; not shown: hFc (human Fc)
T1 sequence (looked up): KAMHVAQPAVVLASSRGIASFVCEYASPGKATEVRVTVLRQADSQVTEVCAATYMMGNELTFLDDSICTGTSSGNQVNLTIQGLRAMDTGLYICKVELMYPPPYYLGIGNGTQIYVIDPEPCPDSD

T2: monkey CTLA4-Fc (SinoBiological, catalog #90213-C02H) (monkey, UniProt G7PL88 36-161, Probably biotin-labeled (detected with HRP-streptavidin). Fused to an Fc that is not given in letters.)
T2 construct: Detected with streptavidin, so read as biotin-labeled like the mouse protein
T2 sequence: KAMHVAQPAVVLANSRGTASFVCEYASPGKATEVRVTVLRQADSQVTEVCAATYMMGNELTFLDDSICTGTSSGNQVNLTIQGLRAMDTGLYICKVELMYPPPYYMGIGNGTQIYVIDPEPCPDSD

T3: hCTLA4-mFc fusion protein (human, UniProt P16410 36-161)
T3 construct: Captured on AMC (anti-mouse Fc capture) sensors in the Octet assay; not shown: mFc (mouse Fc)
T3 sequence (looked up): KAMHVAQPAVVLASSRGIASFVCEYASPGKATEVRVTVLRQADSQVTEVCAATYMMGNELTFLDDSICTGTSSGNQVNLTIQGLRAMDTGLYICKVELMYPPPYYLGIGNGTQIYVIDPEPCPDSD

T4: human CTLA4 on the cell surface (human, UniProt P16410 36-223)
T4 construct: whole, on cells; also called CTLA4 on the surface of human T cells
T4 sequence (looked up): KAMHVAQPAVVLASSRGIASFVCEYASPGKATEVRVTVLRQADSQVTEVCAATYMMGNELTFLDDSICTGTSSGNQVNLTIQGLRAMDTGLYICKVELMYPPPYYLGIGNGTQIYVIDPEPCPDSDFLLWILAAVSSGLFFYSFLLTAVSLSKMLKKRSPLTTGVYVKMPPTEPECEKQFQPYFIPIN

B1: murine anti-CTLA4 monoclonal antibody 19C5-G11-A7-G5 (antibody, V domains shown)
VH: EVQLQQSGTVLARPGASVKMSCKASGYSFTSYWIHWVKQRPGQGLEWIGAFYPGNSDTNYNQNFKGKAKLTAVTSASTAYMELSSLTNEDSAVYYCTYYYRSSYAMDNWGQGTSVTVSS
VL: DIQMNQSPSSLSASLGDTITITCHASQNINDWLSWYQQKPGNIPKLLIYKASNLHTGVPSRFSGSGSGTGFTLTISSLQPEDIATYYCQQGQSYPLTFGSGTKLEIK
notes: Mouse hybridoma antibody purified on Protein A
B2: human-mouse CTLA4 chimeric antibody 4H9-G5-D5-B1 (antibody, V domains shown)
VH: EVKLDETGGGLVQPGRSMKLSCVVSGFTFSDNWMNWVRQSPEKGLEWVAQIRNKPYNFETYYSDSVKGRFTISRDDSKSTVYLQMNNLRAEDMGVYYCTGGFTYWGQGTLVTVSA
VL: DIQMTQSPASLSASVGETVTITCGASENIYGGLNWYQRKQGKSPQLLIYGATNLAEGMSSRFSGSGSGRQYSLKISSLHPDDVATYYCQNVLSSPWTFGGGTKLEIK
B3: murine anti-CTLA4 monoclonal antibody 4H9-G5-D5-B1 (antibody, V domains shown)
VH: EVKLDETGGGLVQPGRSMKLSCVVSGFTFSDNWMNWVRQSPEKGLEWVAQIRNKPYNFETYYSDSVKGRFTISRDDSKSTVYLQMNNLRAEDMGVYYCTGGFTYWGQGTLVTVSA
VL: DIQMTQSPASLSASVGETVTITCGASENIYGGLNWYQRKQGKSPQLLIYGATNLAEGMSSRFSGSGSGRQYSLKISSLHPDDVATYYCQNVLSSPWTFGGGTKLEIK
notes: as for B1
B4: human-mouse CTLA4 chimeric antibody 9B8-H2-B6-G5 (antibody, V domains shown)
VH: QVQLQQPGSELVRPGASVKLSCKASGYTFTNYWVHWVKQRPGQGLEWIGNIFPGSDTSNYDEKFISKATLTVDTSSSAAYMQLNSLTSEDSAVYYCARLAYFTNYGGAMDYWGRGTSVTVSS
VL: DIVLTQSPASLVVSLGQRATISCRASKSVSTSAYNYMHWYQQKPGQPPKLLIYLASNLESGVPARFSGSGSGTDFTLNVHPVEEEDAATYYCQLSRELPYTFGGGTKLEIK
B5: murine anti-CTLA4 monoclonal antibody 9B8-H2-B6-G5 (antibody, V domains shown)
VH: QVQLQQPGSELVRPGASVKLSCKASGYTFTNYWVHWVKQRPGQGLEWIGNIFPGSDTSNYDEKFISKATLTVDTSSSAAYMQLNSLTSEDSAVYYCARLAYFTNYGGAMDYWGRGTSVTVSS
VL: DIVLTQSPASLVVSLGQRATISCRASKSVSTSAYNYMHWYQQKPGQPPKLLIYLASNLESGVPARFSGSGSGTDFTLNVHPVEEEDAATYYCQLSRELPYTFGGGTKLEIK
notes: as for B1

Experiments:
hCTLA4-hFc [1] = target: T1, hCTLA4-hFc; assay: ELISA, coated hCTLA4-hFc
Method: ELISA was used for detecting the binding of purified antibodies to CTLA4-hFc. […] The plates were washed with PBST (PBS containing 0.05% of Tween-20) three times, and were blocked with 5% skimmed milk powder (Oxoid, catalog #LP0031B) for 2 hours at 37° C. The plates were washed three times with PBST and were incubated for 1 hour at room temperature with antibodies to be detected. The plates were washed three times and incubated for 1 hour at room temperature with 1/5000 diluted HRP-labeled goat anti-mouse IgG secondary antibodies (Invitrogen, catalog #31432). The plates were washed with PBST and were developed by adding TMB.

[2] = target: T2, monkey CTLA4-Fc (SinoBiological, …); assay: ELISA, coated antibody, monkey CTLA4-Fc
Method: (§1) Species cross reactions of the purified antibodies were detected using ELISA. The quantified purified antibodies were coated on 96-well plates (Corning, catalog #9018) followed by incubation overnight at 4° C., and were blocked with 5% skimmed milk powder (Oxoid, catalog #LP0031B) for 2 hours at 37° C. The biotin-labeled mouse CTLA4-His (SinoBiological, catalog #50503-M08H) or monkey CTLA4-Fc (SinoBiological, catalog #90213-C02H) was added to the plates and incubated for 1 hour at room temperature. The plates were washed three times with PBST and incubated with 1/1000 diluted HRP-labeled streptavidin (BD, catalog #554066) for 1 hour at room temperature. The plates were washed and developed by adding TMB.

[3] = target: T5, biotin-labeled mouse CTLA4-His (SinoBiological, catalog #50503-M08H) (mouse, UniProt P09793 36-162, biotin-labeled (site not stated)); assay: ELISA, coated antibody, biotin mouse CTLA4-His
T5 construct: not shown: His tag
Method: as §1

hCTLA4-hFc [4] = target: T1, hCTLA4-hFc; assay: blocking ELISA, coated antibody, biotin hCTLA4-hFc, competitor hCD80-Fc
Method: (§2) The purified antibodies were coated on 96-well plates (Corning, catalog #9018) followed by incubation overnight at 4° C., and were blocked with 5% skimmed milk powder (Oxoid, catalog #LP0031B) for 2 hours at 37° C. […] The plates were washed with PBST and incubated with HRP-labeled streptavidin (BD, catalog #554066) for 1 hour at room temperature. The plates were washed and developed by adding TMB.

hCTLA4-hFc [5] = target: T1, hCTLA4-hFc; assay: blocking ELISA, coated antibody, biotin hCTLA4-hFc, competitor hCD86-Fc
Method: as §2

[6] = target: T3, hCTLA4-mFc fusion protein; assay: BLI (Octet-96), CTLA4-mFc on AMC sensor, antibody 3-200 nM, 1:1 global fit
Method: The kinetic constants (kassoc and kdissoc) of binding of the antibody and the antigen were measured using the biomolecular interaction system Octet-96 (Pall Life Sciences, S-000959), and the equilibrium binding constant KD was further calculated. […] Specifically, AMC sensors were pre-wet in the buffer (PBS containing 0.02% Tween-20 and 0.1% BSA) for 10 minutes and then equilibrated in CTLA4-mFc sample buffer for 5 minutes to such that the CTLA4-mFc proteins were coupled to the surfaces of sensors. The CTLA4-mFc-coupled AMC sensors were first equilibrated in the buffer for 2 minutes and then incubated for 5 minutes in buffer containing different concentrations of antibody (3-200 nM) to measure the binding of antibodies to the CTLA4-mFc protein. Finally, the antigen and antibody-bound sensors were repositioned in the sample buffer and waited for 10 minutes to measure the dissociation of antibodies from the CTLA4-mFc proteins. The measured data were globally fitted using a 1:1 model to obtain kinetic constants of binding and dissociation. On this basis, an equilibrium binding constant KD was further obtained.

hCTLA4-hFc [7] = target: T1, hCTLA4-hFc; assay: competition ELISA: biotin-labeled CTLA4-hFc pre-incubated with graded chimeric antibody, captured on coated Ipilimumab (2 ug/mL)
Method: The plates were washed three times with PBST and incubated with 1/1000 diluted HRP-labeled streptavidin (BD, catalog #554066) for 1 hour at room temperature. The plates were washed and developed by adding TMB.

[8] = target: T4, human CTLA4 on the cell surface; assay: FACS on 293T-hCTLA4 cells
Method: The purified antibodies to be detected were added to wells at a certain concentration (50 μL/well) and incubated for 1 hour at 4° C. The cells were washed three times with buffer and were incubated for 0.5 hour at 4° C. with PE-labeled fluorescent secondary antibodies. The cells were washed three times with FACS buffer and re-suspended to 200 μL/well. The fluorescence signals were detected using Attune Nxt flow cytometer (Thermo Fisher).

Row | Binder | EC50 (hCTLA4-hFc [1]) [nM] | ELISA (OD) [2] [OD] | ELISA (OD) [3] [OD] | IC50 (hCTLA4-hFc [4]) [mg/L] | IC50 (hCTLA4-hFc [5]) [mg/L] | Kd [6] [nM] | IC50 (read off the curve) (hCTLA4-hFc [7]) [mg/L] | EC50 [8] [nM]
1 | B1 | 0.036 | 0.64 | 0.06 | 0.0357 | 3.15 | – | – | –
2 | B2 | – | – | – | – | – | < 0.001 | ~0.03 | –
3 | B3 | 0.023 | 2.79 | 0.05 | 0.0691 | 7.24 | – | – | 1.35
4 | B4 | – | – | – | – | – | 0.0868 | ~0.2 | –
5 | B5 | 0.025 | 0.37 | 0.06 | 0.00292 | 1.08 | – | – | 1.08
